Reference: patent US20230057263A1

T1: (H2N-…-OH) vCD3e #p2-BSA
T1 sequence (peptide, conjugated to BSA): CPQYPGSEILWQHNDK

T2: (H2N-…-OH) vCD3e #p3-BSA
T2 sequence (peptide, conjugated to BSA): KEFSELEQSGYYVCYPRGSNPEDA

B1: 6d59 (antibody, V domains shown)
VH: QVHLVESGGGVVQPGRSLRLSCAASGFKFRSYGMHWVRQAPGKGLEWVAIIWYDGSKRYYADSVKGRFTISRDNSKNTLYLQMSSLRAEDTAVYYCARDLITGTTDYWGQGTLVTVSS
VL: DVVMTQSPLSLPVTLGQPASISCRSSRSLVYSDGNTHLIWFQQRPGQSPRRLIYRVSNRVSGVPDRFSGSGSGTDFTLKISRVEAEDVGVYYCLQGAHWPYTFGQGTKLEIKR
B2: SP34-2 (antibody, from a related filing, V domains shown)
VH: EVQLVESGGGLVQPKGSLKLSCAASGFTFNTYAMNWVRQAPGKGLEWVARIRSKYNNYATYYADSVKDRFTISRDDSQSILYLQMNNLKTEDTAMYYCVRHGNFGNSYVSWFAYWGQGTLVTVSA
VL: QAVVTQESALTTSPGETVTLTCRSSTGAVTTSNYANWVQEKPDHLFTGLIGGTNKRAPGVPARFSGSLIGDKAALTITGAQTEDEAIYFCALWYSNLWVFGGGTKLTVL

Tests used:
(H2N-…-OH) vCD3e #p2-BSA = target: T1, (H2N-…-OH) vCD3e #p2-BSA; assay: Luminex bead assay, 1 ug/ml antibody [Cont.]
[1] = target: human CD3 epsilon (CD3ε) (human) (UniProt P07766); assay: flow cytometry on human T cells
[2] = target: cynomolgus CD3-epsilon (cynomolgus) (UniProt Q95LI5); assay: flow cytometry on cynomolgus T cells
Sequence of cynomolgus CD3-epsilon (cynomolgus) (Q95LI5 22-198): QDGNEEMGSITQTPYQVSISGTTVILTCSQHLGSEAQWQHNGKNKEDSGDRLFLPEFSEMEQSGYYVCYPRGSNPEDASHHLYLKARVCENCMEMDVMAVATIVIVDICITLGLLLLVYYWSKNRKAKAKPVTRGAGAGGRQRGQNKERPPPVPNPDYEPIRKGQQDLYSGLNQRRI

(H2N-…-OH) vCD3e #p3-BSA = target: T2, (H2N-…-OH) vCD3e #p3-BSA; assay: Luminex bead assay, 1 ug/ml antibody [Cont.]
BSA alone (bovine) = BSA alone (bovine) (UniProt P02769); assay: Luminex bead assay, 1 ug/ml antibody [Cont.]
Sequence of BSA alone (bovine) (P02769 25-607 limits assumed): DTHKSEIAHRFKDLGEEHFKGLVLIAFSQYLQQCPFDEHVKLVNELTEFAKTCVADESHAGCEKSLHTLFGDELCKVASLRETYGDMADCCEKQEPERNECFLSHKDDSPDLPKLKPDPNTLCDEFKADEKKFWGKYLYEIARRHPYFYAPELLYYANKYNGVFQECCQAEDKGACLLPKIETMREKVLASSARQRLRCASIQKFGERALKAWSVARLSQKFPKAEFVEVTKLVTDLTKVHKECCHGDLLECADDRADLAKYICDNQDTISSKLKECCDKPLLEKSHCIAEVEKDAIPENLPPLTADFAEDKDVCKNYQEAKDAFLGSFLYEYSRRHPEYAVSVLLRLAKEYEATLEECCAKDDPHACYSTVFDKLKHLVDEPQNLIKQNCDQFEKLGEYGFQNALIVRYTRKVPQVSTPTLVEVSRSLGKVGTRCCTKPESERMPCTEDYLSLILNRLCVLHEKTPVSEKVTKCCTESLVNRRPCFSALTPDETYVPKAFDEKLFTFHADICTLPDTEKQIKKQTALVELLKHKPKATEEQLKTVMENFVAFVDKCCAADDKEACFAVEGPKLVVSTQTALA

[3] = target: biotinylated 15-mer peptide corresponding to the CD3ε N-terminus (human) (UniProt P07766); assay: Luminex bead assay, 1 ug/ml antibody [Cont.]
[4] = target: huCD3d/eCHO-E DT1331 (human) (UniProt P04234); assay: Luminex bead assay, 1 ug/ml antibody [Cont.]
Sequence of huCD3d/eCHO-E DT1331 (human) (P04234 22-105): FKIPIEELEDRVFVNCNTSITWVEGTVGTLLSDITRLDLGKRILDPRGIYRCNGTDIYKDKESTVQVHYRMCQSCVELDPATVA

vCD3e #p1 peptide = assay: Luminex bead assay, 1 ug/ml antibody [Cont.]
[5] = target: cynomolgus CD3-epsilon (cynomolgus) (UniProt Q95LI5); assay: Luminex bead assay, 1 ug/ml antibody; recombinant cyno CD3 (sinobiologicals) on beads [Cont.]

Row | Luminex signal ((H2N-…-OH) vCD3e #p2-BSA) | EC50 (read off the curve) [1] | EC50 (read off the curve) [2] | Luminex signal ((H2N-…-OH) vCD3e #p3-BSA) | Luminex signal (BSA alone (bovine)) | Luminex signal [3] | Luminex signal [4] | Luminex signal (vCD3e #p1 peptide) | Luminex signal [5] | Binder
1 | 238 | – | – | – | – | – | – | – | – | B1
2 | 184 | 0.2 nM | 0.3 nM | 439 | 398 | 6.5 | 22100 | 17900 | 17200 | B2
